Laboratory results as given in the supplement of paper PMC10126150.
± gives the standard deviation of the averaged measurements.
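Further: ATP exposure 15 min at 22 °C before imaging.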

What follows are sequences tested on ATP (assay: switch fluorescence ratio, 500 uM ATP over buffer (Cy3 cluster intensity, sum of 5 cycles each) (fold (ratio)); higher = stronger signal-on switching upon ATP binding; sequences stand for … in TCGTCGGCAGCGTCAGATGTGTATAAGAGACAGTTTTTTTTTTTTTTTTTTTTTTTTT…TC). Conditions: aptamer strand: ATP DNA aptamer (quencher-CACCTGGGGGAGTATTGCGGAGGAAGG + anchor), 100 nM annealed; ATP concentration: 500 uM.
How it was run: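 After annealing to 100 nM quencher-labelled ATP aptamer, Cy3-labelled switching-strand clusters on a modified Illumina MiSeq flow-cell were imaged in selection buffer. A second image followed after 15 min with 500 uM ATP at 22 °C, and five such buffer/ATP cycles were done, each separated by NaOH stripping and re-annealing. The fluorescence ratio, averaged per switch-domain sequence, is summed target-cycle over summed buffer-cycle Cy3 intensity per cluster, with clusters outside 100-1000 RFU excluded.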
ATGGGTTTGG was tested, and the switch fluorescence ratio was 1.01 ± 0.036.
ATGGGTTTTC gave a switch fluorescence ratio of 0.981 ± 0.03.
In the case of ATGGTAATGG, the switch fluorescence ratio is reported as 1.02 ± 0.016.
With ATGGTATCT the switch fluorescence ratio was 1.08 ± 0.1.
ATGGTGAATG gave a switch fluorescence ratio of 0.978 ± 0.017.
ATGGTGACGG gave a switch fluorescence ratio of 0.9765 ± 0.0034.
ATGGTGGCAG showed a switch fluorescence ratio of 0.997 ± 0.054.
ATGGTGGTGT was tested, and the switch fluorescence ratio was 1.03 ± 0.013.
For ATGGTGTCGA, the switch fluorescence ratio was 0.947 ± 0.029.
Work on ATGGTGTGG yielded a switch fluorescence ratio of 1.02 ± 0.074.
With ATGGTTATGT the switch fluorescence ratio was 1.03 ± 0.026.
For ATGGTTCAAC, the switch fluorescence ratio was 1.003 ± 0.01.
Work on ATGGTTCGGG yielded a switch fluorescence ratio of 0.996 ± 0.014.
For ATGGTTTCGT, the switch fluorescence ratio was 0.996 ± 0.037.
Work on ATGGTTTTAT yielded a switch fluorescence ratio of 1.01 ± 0.045.
Work on ATGTAAATGA yielded a switch fluorescence ratio of 0.9855 ± 0.0083.
ATGTAACGGG showed a switch fluorescence ratio of 1.03 ± 0.021.
Sequence ATGTAATATG has a switch fluorescence ratio of 0.992 ± 0.024.
In the case of ATGTACGCTT, the switch fluorescence ratio is reported as 1.052 ± 0.0038.
Work on ATGTACTGGG yielded a switch fluorescence ratio of 1.08 ± 0.043.
For ATGTACTTTA, the switch fluorescence ratio was 1.06 ± 0.028.
ATGTAGAAGG showed a switch fluorescence ratio of 1 ± 0.029.
For ATGTAGAGGT, the switch fluorescence ratio was 0.9803 ± 0.0074.
In the case of ATGTAGCATG, the switch fluorescence ratio is reported as 1.036 ± 0.0041.
Sequence ATGTAGCGGT has a switch fluorescence ratio of 1.12 ± 0.013.
ATGTATAAAT was tested, and the switch fluorescence ratio was 0.9743 ± 0.009.
In the case of ATGTATTGAG, the switch fluorescence ratio is reported as 1.008 ± 0.0025.
For ATGTATTTTC, the switch fluorescence ratio was 0.986 ± 0.041.
In the case of ATGTATTTTT, the switch fluorescence ratio is reported as 1 ± 0.031.
In the case of ATGTCACAAA, the switch fluorescence ratio is reported as 1.03 ± 0.059.
For ATGTCGACAC, the switch fluorescence ratio was 0.976 ± 0.02.
With ATGTGAGTTC the switch fluorescence ratio was 0.985 ± 0.022.
For ATGTGATTTG, the switch fluorescence ratio was 0.985 ± 0.035.
ATGTGCATAT gave a switch fluorescence ratio of 1.03 ± 0.02.
ATGTGCTGCG gave a switch fluorescence ratio of 0.993 ± 0.031.
With ATGTGCTTC the switch fluorescence ratio was 1.005 ± 0.0078.
Sequence ATGTGGCTAG has a switch fluorescence ratio of 1.01 ± 0.032.
ATGTGGGCGG was tested, and the switch fluorescence ratio was 0.991 ± 0.028.
With ATGTGGGGTT the switch fluorescence ratio was 1.01 ± 0.014.
Work on ATGTGGTGGT yielded a switch fluorescence ratio of 1 ± 0.043.
In the case of ATGTGGTTGT, the switch fluorescence ratio is reported as 0.97 ± 0.019.
ATGTGTAGAG was tested, and the switch fluorescence ratio was 0.995 ± 0.027.
ATGTGTCTG gave a switch fluorescence ratio of 0.987 ± 0.014.
Work on ATGTGTCTTT yielded a switch fluorescence ratio of 0.979 ± 0.03.
Sequence ATGTGTTGGT has a switch fluorescence ratio of 1 ± 0.011.
With ATGTTAAAAG the switch fluorescence ratio was 1.01 ± 0.035.
Work on ATGTTAACG yielded a switch fluorescence ratio of 0.999 ± 0.043.
ATGTTAATCT was tested, and the switch fluorescence ratio was 1.02 ± 0.035.
Sequence ATGTTATAGA has a switch fluorescence ratio of 0.986 ± 0.034.
Work on ATGTTCAACT yielded a switch fluorescence ratio of 0.998 ± 0.016.
In the case of ATGTTCATGG, the switch fluorescence ratio is reported as 0.99 ± 0.043.
ATGTTCCTTT showed a switch fluorescence ratio of 0.999 ± 0.023.
Sequence ATGTTCGACA has a switch fluorescence ratio of 0.965 ± 0.027.
In the case of ATGTTCGAGA, the switch fluorescence ratio is reported as 0.9855 ± 0.0066.
In the case of ATGTTCGTCA, the switch fluorescence ratio is reported as 0.988 ± 0.044.
ATGTTCTTCT showed a switch fluorescence ratio of 0.982 ± 0.018.
Work on ATGTTGCCGT yielded a switch fluorescence ratio of 1.01 ± 0.13.
ATGTTGCGGG showed a switch fluorescence ratio of 1 ± 0.041.
In the case of ATGTTGGGGA, the switch fluorescence ratio is reported as 0.996 ± 0.019.
ATGTTGGTTG was tested, and the switch fluorescence ratio was 1.03 ± 0.04.
Sequence ATGTTGTAAC has a switch fluorescence ratio of 0.985 ± 0.01.
In the case of ATGTTGTAAG, the switch fluorescence ratio is reported as 1.01 ± 0.039.
Work on ATGTTGTGTT yielded a switch fluorescence ratio of 0.9626 ± 0.0029.
With ATGTTTAGGG the switch fluorescence ratio was 1.01 ± 0.042.
ATGTTTATCA was tested, and the switch fluorescence ratio was 1.01 ± 0.055.
ATGTTTATGG was tested, and the switch fluorescence ratio was 0.987 ± 0.012.
With ATGTTTCGC the switch fluorescence ratio was 0.999 ± 0.045.
With ATGTTTGGGA the switch fluorescence ratio was 0.967 ± 0.047.
In the case of ATGTTTGGGT, the switch fluorescence ratio is reported as 1.01 ± 0.019.
ATGTTTGGTG gave a switch fluorescence ratio of 0.97 ± 0.019.
ATGTTTTTCG showed a switch fluorescence ratio of 0.9718 ± 0.0029.
With ATGTTTTTGC the switch fluorescence ratio was 1.04 ± 0.1.
ATTAAAAATG was tested, and the switch fluorescence ratio was 1.02 ± 0.042.
For ATTAAACGAG, the switch fluorescence ratio was 1.01 ± 0.031.
Sequence ATTAAAGGAG has a switch fluorescence ratio of 1.01 ± 0.017.
For ATTAAATACC, the switch fluorescence ratio was 1.25 ± 0.29.
